Experimental data taken from publication PMC3778281.

Molecular target: F8–TNF (murine)
Assay: SEC

Work on F8–TNF yielded a stoichiometry N of 3.
